Data as given in PMC8004985, “Affinity Purification of Angiotensin Converting Enzyme Inhibitory Peptides from Wakame (Undaria Pinnatifida) Using Immobilized ACE on Magnetic Metal Organic Frameworks” (Marine Drugs, 2021).

Columns and labels:
[1] = Enzyme characterisation of free and immobilized ACE (optimum pH, temperature, Ea, Km, Vmax); format: biochemical, pig
Description: (§1) The ACE was prepared from pig lung and the precipitates were dialyzed and used as a crude enzyme sample for the immobilization of ACE [6]. Twenty-five milligrams of Fe3O4@ZIF-90 nanoparticles were dispersed in 2 mL of crude sample, and incubated with shaking for a certain time at different temperatures to immobilize the ACE. The immobilized ACE (Fe3O4@ZIF-90-ACE) was magnetically recovered and the precipitate was washed several times by 0.1 M phosphate (PBS) buffer until the supernatant was free of protein. Immobilized ACE was quantified using the Bradford method, which used bovine serum albumin (BSA) as the standard. Finally, the obtained immobilized ACE was stored at −80 °C. Enzyme loading capacity was calculated using Equation (1):(1) Enzyme loading capacity(mg⋅g^−1)=(Total protein content-supernatant protein content) /Total mass of Fe3O4@ZIF-90
(§2) ACE activity was evaluated by measuring the amount of hippuric acid (HA). The assay mixture (0.3 mL) consisted of 130 µL BBS buffer pH 8.3 ([…], containing 0.3 M NaCl), 40 µL HHL (5 mM), and different amounts of the free and immobilized ACE. Incubation was carried out at 37 °C for 10 min and was terminated by addition of HCl (0.1 mL, 1 M). The HA content of the mixture was determined by RP-HPLC (Agilent 1260) at 228 nm with a DAD detector. One unit of ACE enzyme activity (U) was defined as the amount of enzyme catalyzing HHL to generate 1 µM of HA per minute under the experimental conditions.

[2] = Enzymatic stability and reusability of free and immobilized ACE; format: biochemical, pig
Description: as §1
To determine thermal stability, the immobilized ACE was dispersed in PBS buffer in the absence of the HHL substrate at 20–60 °C for 1 h. […]
The storage stability of immobilized ACE was determined by storing at −20 °C for 30 days. The enzyme activity was then measured, and the relative activity was compared with that of the untreated ACE. The immobilized ACE was evaluated over six successive cycles to investigate the reusability stability; the first-time detection activity was considered as 100%.
as §2

[3] = HHL substrate, Table S2, Lineweaver-Burk

B1: free ACE: free angiotensin-I-converting enzyme (protein, UniProt P12821 30-1306, looked up)
Angiotensin-converting enzyme: LDPGLQPGNFSADEAGAQLFAQSYNSSAEQVLFQSVAASWAHDTNITAENARRQEEAALLSQEFAEAWGQKAKELYEPIWQNFTDPQLRRIIGAVRTLGSANLPLAKRQQYNALLSNMSRIYSTAKVCLPNKTATCWSLDPDLTNILASSRSYAMLLFAWEGWHNAAGIPLKPLYEDFTALSNEAYKQDGFTDTGAYWRSWYNSPTFEDDLEHLYQQLEPLYLNLHAFVRRALHRRYGDRYINLRGPIPAHLLGDMWAQSWENIYDMVVPFPDKPNLDVTSTMLQQGWNATHMFRVAEEFFTSLELSPMPPEFWEGSMLEKPADGREVVCHASAWDFYNRKDFRIKQCTRVTMDQLSTVHHEMGHIQYYLQYKDLPVSLRRGANPGFHEAIGDVLALSVSTPEHLHKIGLLDRVTNDTESDINYLLKMALEKIAFLPFGYLVDQWRWGVFSGRTPPSRYNFDWWYLRTKYQGICPPVTRNETHFDAGAKFHVPNVTPYIRYFVSFVLQFQFHEALCKEAGYEGPLHQCDIYRSTKAGAKLRKVLQAGSSRPWQEVLKDMVGLDALDAQPLLKYFQPVTQWLQEQNQQNGEVLGWPEYQWHPPLPDNYPEGIDLVTDEAEASKFVEEYDRTSQVVWNEYAEANWNYNTNITTETSKILLQKNMQIANHTLKYGTQARKFDVNQLQNTTIKRIIKKVQDLERAALPAQELEEYNKILLDMETTYSVATVCHPNGSCLQLEPDLTNVMATSRKYEDLLWAWEGWRDKAGRAILQFYPKYVELINQAARLNGYVDAGDSWRSMYETPSLEQDLERLFQELQPLYLNLHAYVRRALHRHYGAQHINLEGPIPAHLLGNMWAQTWSNIYDLVVPFPSAPSMDTTEAMLKQGWTPRRMFKEADDFFTSLGLLPVPPEFWNKSMLEKPTDGREVVCHASAWDFYNGKDFRIKQCTTVNLEDLVVAHHEMGHIQYFMQYKDLPVALREGANPGFHEAIGDVLALSVSTPKHLHSLNLLSSEGGSDEHDINFLMKMALDKIAFIPFSYLVDQWRWRVFDGSITKENYNQEWWSLRLKYQGLCPPVPRTQGDFDPGAKFHIPSSVPYIRYFVSFIIQFQFHEALCQAAGHTGPLHKCDIYQSKEAGQRLATAMKLGFSRPWPEAMQLITGQPNMSASAMLSYFKPLLDWLRTENELHGEKLGWPQYNWTPNSARSEGPLPDSGRVSFLGLDLDAQQARVGQWLLLFLGIALLVATLGLSQRLFSIRHRSLHRHSHGPQFGSEVELRHS
Question: Which “loss of relative activity between 35°C and 50°C” value ([1]; 35°C to 50°C) does the source give for B1 here?
Answer: The value was greater than 40%.

Question: And the “Ea (activation energy)” value ([1]; Arrhenius equation, Fig. S5 (c))?
Answer: The value was 8.535 kcal/mol.

Question: And the “Optimum pH” value ([1]; Fig. S5 (a))?
Answer: Its value is 8.3.

Question: And the optimum temperature ([1]; Fig. S5 (b))?
Answer: Its optimum temperature is 40 °C.

Question: And the Km [1, 3]?
Answer: Its Km is 1960 µM.

Question: And the Vmax [1, 3]?
Answer: The Vmax was 46.296 mmol/min.

Question: What about the catalytic efficiency ([1]; Table S2) of the same molecule?
Answer: The catalytic efficiency was 23.596.

Question: What about the “activity lost on storage” value ([2]; 30 days, −20 °C) of the same molecule?
Answer: Its value is 45.04%.

Question: What about the “residual activity (thermal stability)” value ([2]; after heating at 60 °C for 1 h, PBS buffer, absence of HHL) of the same molecule?
Answer: The value was 22.03%.

Question: And the “relative activity (pH stability)” value ([2]; pH 5.0–10.0 (method: pH 5.0–9.0), 1 h)?
Answer: The value was 37.05%.
